Results on five molecules are retold here after US20200087373A1 (UNIVERSITY OF COPENHAGEN, published 2020).

Ends that are not written are not given here. * marks the point of attachment. Stearoyl = CCCCCCCCCCCCCCCCCC(=O)*

For assay [1], the target named is human GIP receptor (human) (UniProt P48546). As to the kind of experiment: cell-based or functional assay.
For assay [2] the target is unchanged. Description: 125I-hGIP(1-42) competition binding, COS-7 cells expressing human GIPR.
Assay [3] shares this target. As to the kind of experiment: 125I-hGIP(1-42) competition binding, COS-7 cells expressing human GIPR, 2% HSA.
Assay [4] shares this target. Description: 125I-hGIP(1-42) competition binding, COS-7 cells expressing human GIPR, 0.1% casein (no HSA).
For assay [5] the target is unchanged. Description: ratio of IC50 with 2% HSA to IC50 with 0.1% casein, 125I-hGIP competition binding on hGIPR COS-7 cells.
Assay [6] has the same target. Description: 125I-hGIP competition binding on hGIPR COS-7 cells; fold in affinity, paired, reference taken as GIP(3-30)NH2.
Assay [7] shares this target. As to the kind of experiment: 125I-hGIP competition binding, COS-7 cells expressing hGIPR.
For a further assay, the target named is T1, human GIP receptor (human, UniProt P48546 22-466).
T1 sequence (looked up): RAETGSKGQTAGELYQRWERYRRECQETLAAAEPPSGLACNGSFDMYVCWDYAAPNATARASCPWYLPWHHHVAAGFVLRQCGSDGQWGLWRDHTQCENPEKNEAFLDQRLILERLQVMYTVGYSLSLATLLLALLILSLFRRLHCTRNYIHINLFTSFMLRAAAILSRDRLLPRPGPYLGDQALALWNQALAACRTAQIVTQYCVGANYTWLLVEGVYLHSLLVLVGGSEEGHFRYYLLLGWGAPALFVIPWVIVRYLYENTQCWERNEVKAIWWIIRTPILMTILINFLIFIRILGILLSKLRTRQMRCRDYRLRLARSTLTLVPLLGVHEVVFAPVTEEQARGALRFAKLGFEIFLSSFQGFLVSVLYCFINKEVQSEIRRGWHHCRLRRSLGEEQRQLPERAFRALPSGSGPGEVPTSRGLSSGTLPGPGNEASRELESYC
As to the kind of experiment: cell-based or functional assay.

Broadly, the IC50 is the concentration that gives 50% inhibition. High values mean a need for much substance, low ones inhibition by little substance. The molecule “AT162, second row of Table 3b (H18K; K30R, C16 at position 16) (peptide)” gave a cAMP - antagonisme IC50 in assay [1] of 213 nM. Further, the cAMP - antagonisme fold (paired) in assay [1] came to 4.1 fold. Also, the 50% inhibitory concentration (IC50) is 213 nM in assay [2], 705 nM in assay [3] and 213 nM in assay [4]. In assay [5], the Fold change (IC50 2% HSA / IC50 0.1% casein) was found to be 3.3 fold. The same molecule returned a fold (paired) in assay [6] of 9.2 fold.
On to “AT162 (H18K; K30R, C18 at position 16, as printed in Table 3b) (peptide)”, for which the cAMP - antagonisme IC50 in assay [1] was determined as 26.3 nM. Further, in assay [1], the cAMP - antagonisme fold (paired) stood at 0.5 fold. The results for the 50% inhibitory concentration (IC50) in assay [2], in assay [3] and in assay [4] were 59.8 nM, 336 nM and 59.8 nM, respectively. Besides, the Fold change (IC50 2% HSA / IC50 0.1% casein) in assay [5] turned out to be 5.6 fold. This molecule also registered a fold (paired) in assay [6] of 2.6 fold.
For the molecule AT129 [hGIP(5-30)NH2-C18/30] (peptide), the log IC50 in assay [7] was -3.9 log M.
For the molecule AT114 [hGIP(3-30)NH2-C18/16] (peptide), the cAMP - antagonisme IC50 in assay [1] is 29.2 nM. In addition, the cAMP - antagonisme fold (paired) in assay [1] is 2.3 fold. Moreover, the IC50 in assay [2] is 102 nM; in assay [3], 881 nM; in assay [4], 115 nM. Besides, the Fold change (IC50 2% HSA / IC50 0.1% casein) in assay [5] was 7.7 fold. Further, in assay [6], the fold (paired) turned out to be 6.7 fold.

B1: AT162 [hGIP(3-30)NH2[H18R; K30R]-C18/16] (peptide)
peptide: EGTFISDYSIAMDK(Stearoyl)IRQQDFVNWLLAQR-NH2
modifications: not fully specified
With B1, in the assay with human GIP receptor, the “cAMP agonism, EC50 (log)” value is -5.9 log M; the “cAMP agonism, Emax” value is 44%; the “cAMP agonism, nM (EC50)” value was determined as 1370 nM. For the same molecule, in assay [7], the half-inhibitory concentration (IC50) came out at 85 nM.
